Measurements published in US20220387586A1 (Hoffmann-La Roche, published 2022).
Numbering of substitutions follows the chain as printed.

How the values were obtained:
[1] = target: T1, LAG3 on cells (recombinant CHO cells expressing Lag3) (human, UniProt P18627 29-525); experiment: cell-based or functional assay
T1 sequence: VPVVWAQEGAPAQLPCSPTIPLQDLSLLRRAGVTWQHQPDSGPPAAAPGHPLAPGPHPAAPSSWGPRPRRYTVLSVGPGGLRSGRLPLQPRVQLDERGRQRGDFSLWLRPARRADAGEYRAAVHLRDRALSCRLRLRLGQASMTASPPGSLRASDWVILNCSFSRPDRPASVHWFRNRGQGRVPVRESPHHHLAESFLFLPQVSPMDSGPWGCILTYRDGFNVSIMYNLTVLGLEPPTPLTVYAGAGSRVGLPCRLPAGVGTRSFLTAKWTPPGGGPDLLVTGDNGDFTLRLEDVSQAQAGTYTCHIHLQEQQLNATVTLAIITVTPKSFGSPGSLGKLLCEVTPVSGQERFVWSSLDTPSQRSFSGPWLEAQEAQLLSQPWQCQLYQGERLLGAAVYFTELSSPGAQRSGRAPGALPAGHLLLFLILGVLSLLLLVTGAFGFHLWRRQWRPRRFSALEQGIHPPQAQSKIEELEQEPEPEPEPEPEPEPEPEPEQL

[2] = target: T1, LAG3 on cells (recombinant CHO cells …); experiment: cell ELISA on recombinant CHO cells expressing Lag3
Procedure: After washing (1×90 μl in PBST) cells were fixed by addition of 30 μl/well glutaraldehyde to a final concentration of 0.05% (Sigma Cat.No: G5882), 10 min at room temperature. After washing (3×90 μl/well with PBST-buffer) 25 μl/well goat anti-Human Ig κ chain antibody-HRP conjugate (Milipore, AP502P) was added in a 1:1000 dilution and incubated at RT for 1 h. After washing (3×90 μl/well with PBST-buffer) 25 μl/well TMB substrate (Roche, 11835033001) was added and incubated for 6-10 min. Measurement took place on a Tecan Safire 2 instrument at 370/492 nm.

[3] = target: T2, cynomolgus LAG3 on cells (cynomolgus); experiment: flow cytometry on HEK293F cells transfected with cyno-LAG-3, antibody 10 µg/ml
T2 construct: whole, on cells; also called cyno-LAG-3; cynoLAG3
Procedure: 1.5×10⁵ cells/well were seeded into 96-well plates. […] HEK cells were incubated with indicated antibodies for 45 min on ice, washed twice with 200 μl ice-cold PBS buffer containing 2% FBS, before secondary antibody (APC-labelled goat anti-human IgG-kappa, Invitrogen, cat.no. #MH10515) was added (1:50 diluted in FACS-Puffer/well) and further incubated for 30 min on ice. Cells were again washed twice with 200 μl ice-cold PBS/2% FBS buffer before samples were finally resuspended in 150 μl FACS buffer and binding was measured on FACS CANTO-II HTS Module.

[4] = target: T2, cynomolgus LAG3 on cells; experiment: flow cytometry on activated cynomolgus PBMC, 10 µg/ml (only 2nd Ab (hu): 7.62)
Procedure: Thus, cynomolgus peripheral blood mononuclear cells (PBMC) were prepared from fresh cynomolgus blood and were then activated by CD3/CD28 pre-treatment (1 μg/ml) for 2-3 days. […] After staining, cells were washed two times with PBS/2% FCS and analyzed on a FACS Fortessa (BD).

[5] = target: T3, human Fc tagged human Lag3 extra cellular domain (human, UniProt P18627 29-450, biotinylated in the epitope binning, the SA CAP SPR and the FACS competition assay); experiment: FACS, inhibition of biotinylated Lag3:Fc binding to MHC-II on A375 cells (competitor MHC-II); antibody 10 µg/ml
T3 construct: In-house fusion; also called huLag3-Fc; biotinylated, huFc-tagged huLag3; not shown: human Fc tag
T3 sequence: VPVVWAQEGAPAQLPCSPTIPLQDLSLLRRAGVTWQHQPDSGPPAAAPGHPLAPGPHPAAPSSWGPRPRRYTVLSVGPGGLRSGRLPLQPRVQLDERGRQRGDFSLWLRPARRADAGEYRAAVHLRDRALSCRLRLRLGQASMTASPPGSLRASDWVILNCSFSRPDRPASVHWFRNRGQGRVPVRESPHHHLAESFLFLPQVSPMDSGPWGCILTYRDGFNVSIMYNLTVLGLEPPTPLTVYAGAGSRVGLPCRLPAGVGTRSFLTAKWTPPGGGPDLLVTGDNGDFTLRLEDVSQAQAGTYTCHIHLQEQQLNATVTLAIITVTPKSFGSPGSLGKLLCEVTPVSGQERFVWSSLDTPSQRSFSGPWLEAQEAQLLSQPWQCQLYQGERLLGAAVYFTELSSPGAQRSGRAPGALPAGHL
Procedure: This analysis was studied in a FACS competition experiment: A375 cells (ATCC, #CRL-1619) were cultured for 2-3 passages in EM Eagle's medium supplemented with EBSS (PAN, cat.no. #P04-00509), 10% FBS, 2 mM L-Glutamin, 1×NEAA and 1× Sodium Pyruvate. All antibodies, were diluted in FACS buffer to a final concentration of 20 μg/ml in 25 μl (in 96well U-bottom plates). […] A375 cells were washed with PBS and adjusted to 3×10⁶ cells/ml in PBS. 100 μl were seeded per well in a 96well V-bottom plate. Plates were centrifuged and supernatant was removed. […] After this, cells were washed with 200 μl FACS buffer. […] After staining, cells were again washed and then transferred in 150 μl FACS buffer (PBS/2% FBS) to a U-bottom plate and analyzed on a FACS Canto-II using an HTS module.
All antibodies were used at 10 μg/ml final concentration.

[6] = target: T4, biotinylated-Lag3 (UniProt P18627 23-450, limits assumed, biotinylated); experiment: ELISA, inhibition of biotinylated-Lag3 binding to MHC-II on A375 cells (competitor MHC-II); first of two numbers; first of two series in the cell
T4 construct: Probably a human LAG3 ECD construct; also called Lag3 (MHCII/ELISA)
T4 sequence (looked up): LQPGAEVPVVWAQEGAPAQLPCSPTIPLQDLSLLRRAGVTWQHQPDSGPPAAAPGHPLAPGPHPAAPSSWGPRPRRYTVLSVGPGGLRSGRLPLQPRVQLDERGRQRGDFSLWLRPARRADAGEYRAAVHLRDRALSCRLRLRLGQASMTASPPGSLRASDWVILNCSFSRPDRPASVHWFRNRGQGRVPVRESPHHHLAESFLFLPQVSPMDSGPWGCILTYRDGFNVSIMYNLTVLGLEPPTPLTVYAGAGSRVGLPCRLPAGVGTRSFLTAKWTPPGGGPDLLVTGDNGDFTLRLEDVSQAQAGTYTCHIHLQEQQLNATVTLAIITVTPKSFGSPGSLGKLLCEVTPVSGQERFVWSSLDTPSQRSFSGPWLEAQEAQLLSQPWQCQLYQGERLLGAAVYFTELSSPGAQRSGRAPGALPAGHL

[7] = target: T4, biotinylated-Lag3; experiment: ELISA, inhibition of biotinylated-Lag3 binding to MHC-II on A375 cells (competitor MHC-II); second of two numbers; second of two series in the cell (the series of '/0.4' and '/1.0')
[8] = target: T3, human Fc tagged human Lag3 extra …; experiment: SPR (Biacore T200), huLag3-Fc captured, antibody Fab fragment as analyte, 25 °C
Procedure: (§1) Therefore two flow cells of a C1 biosensor chip were prepared in a Biacore T200 by immobilizing neutravidin, diluted to 25 μg/ml in acetate buffer pH 4.5, onto it using the ‘immobilization wizard’. […] Then, CaptureSelect™ Biotin Anti-IgG-Fc (Human) Conjugate was bound to the neutravidin, using a 20 μg/ml dilution in running buffer (HBS-EP+, GE Healthcare).
(§2) The method itself consisted of four commands per cycle. […] Second command: sample injection for 120s followed by a 1200s long dissociation at a flow speed of 30 μl/min. Third and fourth command: regeneration by injecting Glycine-HCl pH 1.5 for 30 seconds.

[9] = target: T3, human Fc tagged human Lag3 extra …; experiment: SPR (Biacore T200), huLag3-Fc captured, antibody Fab fragment as analyte, 25 °C, 1:1 Langmuir fit; monovalent (first value line); bivalent line is tbd
Procedure: as §1, §2

[10] = target: T3, human Fc tagged human Lag3 extra …; experiment: SPR (Biacore T200), huLag3-Fc captured, antibody Fab fragment as analyte, 25 °C, 1:1 Langmuir fit
Procedure: as §1, §2

[11] = target: T5, biotinylated PD1-ECD-AviHis (human, UniProt Q15116 25-170, biotinylated); experiment: ELISA (hu PD1, as described above)
T5 construct: also called huPD1; hu PD1; not shown: Avi-His tag
Procedure: After washing (3×90 μl/well with PBST-buffer) 25 μl/well goat-anti-human H+L-POD (JIR, JIR109-036-088)/Sheep-anti-mouse-POD (GE Healthcare; NA9310) was added in 1:2000/1:1000 dilution and incubated at RT for 1 h on shaker. After washing (3×90 μl/well with PBST-buffer) 25 μl/well TMB substrate (Roche Catalogue No. 11835033001) was added and incubated until OD 2-3. Measurement took place at 370/492 nm.

[12] = target: T6, hu PD1-ECD (human, UniProt Q15116 25-170); experiment: SPR (Biacore T200), antibody captured by anti-human IgG, hu PD1-ECD as analyte, 25 °C, 1:1 Langmuir fit
T6 construct: SPR analyte; also called human PD1-ECD
Procedure: Therefore, an anti-human IgG was immobilized by amine coupling to the surface of a (Biacore) CM5 sensor chip. […] The sensor chip surface was regenerated after each analysis cycle. The equilibrium constant and kinetic rate constants were finally gained by fitting the data to a 1:1 langmuir interaction model.
(§3) The samples were injected for 20 seconds with a concentration of 10 nM and bound to the second flow cell.
Finally the double referenced data was fitted to a 1:1 Langmuir interaction model with the Biacore T200 Evaluation Software.

[13] = target: T6, hu PD1-ECD; experiment: SPR; row head 'Affinity KD 37° C.'; first of two numbers; first of the two numbers in the cell, row head 37° C.
[14] = target: T5, biotinylated PD1-ECD-AviHis; experiment: ligand replacing ELISA; row head 'IC50 PD-L1, 2 [nM]' (ligand not told apart); competing ligand printed only as 'PD-L1, 2'
[15] = target: T6, hu PD1-ECD; experiment: SPR; row head 'Affinity KD 37° C.'; second of two numbers, equal to the 25 °C value of Table 3; second of the two numbers in the cell; only 37° C. is printed, split not explained
Procedure: as §3

T6 sequence (Q15116 25-170 limits assumed): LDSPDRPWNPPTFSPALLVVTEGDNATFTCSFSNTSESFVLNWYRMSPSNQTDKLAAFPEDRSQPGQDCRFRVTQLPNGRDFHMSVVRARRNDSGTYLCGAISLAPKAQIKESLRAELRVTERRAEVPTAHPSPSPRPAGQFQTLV
T5 sequence (Q15116 25-170): as the sequence (Q15116 25-170 limits assumed) above

B1: Reference LAG3 antibody MDX25F7 (antibody, V domains shown)
VH: QVQLQQWGAGLLKPSETLSLTCAVYGGSFSDYYWNWIRQPPGKGLEWIGEINHNGNTNSNPSLKSRVTLSLDTSKNQFSLKLRSVTAADTAVYYCAFGYSDYEYNWFDPWGQGTLVTVSS
VL: EIVLTQSPATLSLSPGERATLSCRASQSISSYLAWYQQKPGQAPRLLIYDASNRATGIPARFSGSGSGTDFTLTISSLEPEDFAVYYCQQRSNWPLTFGQGTNLEIK
notes: also called MDX-25F7 (25F7); Medarex 25F7
**Q.** With B1 as the binder, how does the “EC50 [nM] in Jurkat LAG3 + SED + Raji (NFAT luciferase), 2nd assay” value [1] read?
**A.** 8.6 nM

**Q.** And the “CHO-cell ELISA inflexion point” value [2]?
**A.** 75 ng/mL

**Q.** What about the “% pos.” value [3] of the same binder?
**A.** 41.2%

**Q.** What about the GeoMean [3] of the same binder?
**A.** 3060

**Q.** What about the “% positive cyno cells (PBLs) after CD3/CD28 activation” value [4] of the same binder?
**A.** 22.1%

**Q.** And the “% Inhibition” value [5]?
**A.** 70%

**Q.** What about the IC50 [6] of the same binder?
**A.** 0.8 nM

**Q.** What about the IC50 [7] of the same binder?
**A.** 0.6 nM

B2: aLAG3(0414) Fab fragment (Fab, V domains shown)
VH: EVQLLESGGGLVQPGGSLRLSCAASGFIFDDYTMNWVRQAPGKGLEWVAVISWDGGGTYYTDSVKGRFTISRDDFKNTLYLQMNSLRAEDTAVYYCAKGLTDTTLYGSDYWGQGTLVTVSS
VL: DIQMTQSPSSLSASVGDRVTITCRASQSISSYLNWYQQKPGKAPKLLIYAASTLQSGVPSRFSGSGSGTDFTLTISSLQPEDFATYYCQQTYSSPLTFGGGTKVEIK
**Q.** Which koff [8] does the source give for B2 here?
**A.** 0.000195 s⁻¹

**Q.** And the Kd [9]?
**A.** 0.463 nM

B3: aLAG3(0416) Fab fragment (Fab, V domains shown)
VH: EVQLVESGGGLVQPGGSLRLACAASGFTFSDYAMSWVRQAPGKGLEWVSGIDNSGYYTYYTDSVKGRFTISRDDVKNTLYLQMNSLRAEDTAVYLCTKTHSGLIVNDAFDIWGQGTMVTVSS
VL: B2 VL with M4L, A50D, T53S, Q55E, F71A, T91S, S94T
**Q.** Which results are given for B3?
**A.** koff [8]: 0.000221 s⁻¹; Kd [10]: 0.0282 nM

B4: chimeric PD1-0103 (antibody, human IgG1, V domains shown)
VH: EVILVESGGGLVKPGGSLKLSCAASGFSFSSYTMSWVRQTPEKRLDWVATISGGGRDIYYPDSVKGRFTISRDNAKNTLYLEMSSLMSEDTALYYCVLLTGRVYFALDSWGQGTSVTVSS
VL: KIVLTQSPASLPVSLGQRATISCRASESVDTSDNSFIHWYQQRPGQSPKLLIYRSSTLESGVPARFSGSGSRTDFTLTIDPVEADDVATYYCQQNYDVPWTFGGGTKLEIK
notes: also called chiPD1-0103
**Q.** Which results are given for B4?
**A.** EC50 [11]: 0.2 nM; Kd [12]: 0.8 nM; koff [12]: 0.000307 s⁻¹; kon [12]: 386000 M⁻¹ s⁻¹; Kd [13]: 2 nM; IC50 [14]: 1.35 nM; Kd [15]: 0.8 nM
